2 molecules from patent publication US20210187002A1 (OSAKA UNIVERSITY, published 2021) can be followed below.

For experiment [1], the target named is leukocyte immunoglobulin-like receptor subfamily B member 1 (LILRB1) protein (human, UniProt Q8NHL6 24-650). Kind of experiment: flow cytometry on LILRB1 protein-expressing 293T cells, APC-labeled anti-His antibody. (In flow cytometry, cells or beads pass a laser one at a time.)
In experiment [2] the target is T1, fusion protein containing the conserved region of RIFIN (PF3D7_1254800) and the transmembrane and … (Plasmodium falciparum).
T1 construct: also called fusion protein containing a conserved region
As to the kind of experiment: flow cytometry on transfected 293T cells.

B1: recombinant RIFIN protein (variable region of PF3D7_1254800 with His tag) (ligand)
chain: YETINAFIAKTIEELEGIPGITKLFGAKISQFVTPAVFRKPMSLVETILSEKKKLCLCAANKNELLCRGMNPNVPETLPKKIEVAVNEVLSSVNDTWATATTPTTFFTNP
notes: Used in solution, on plates and on latex or Luminex beads; also called RIFIN-1; RIFIN beads
Take B1: the binding result in experiment [1] was “binds”.

B2: LILRB1-Fc fusion protein (Fc fusion)
chain: GHLPKPTLWAEPGSVITQGSPVTLRCQGGQETQEYRLYREKKTAPWITRIPQELVKKGQFPIPSITWEHTGRYRCYYGSDTAGRSESSDPLELVVTGAYIKPTLSAQPSPVVNSGGNVTLQCDSQVAFDGFILCKEGEDEHPQCLNSQPHARGSSRAIFSVGPVSPSRRWWYRCYAYDSNSPYEWSLPSDLLELLVLGVSKKPSLSVQPGPIVAPEETLTLQCGSDAGYNRFVLYKDGERDFLQLAGAQPQAGLSQANFTLGPVSRSYGGQYRCYGAHNLSSEWSAPSDPLDILIAGQFYDRVSLSVQPGPTVASGENVTLLCQSQGWMQTFLLTKEGAADDPWRLRSTYQSQKYQAEFPMGPVTSAHAGTYRCYGSQSSKPYLLTHPSDPLELVVSGPSGGPSSPTTGPTSTSAGPEDQPLTPTGSDPQSGLGRHLGV
notes: Made in 293T cells and purified with Protein A. For flow cytometry it was complexed with an APC-labeled anti IgG Fc antibody; not shown: Fc part
Consider B2, for which the binding result in experiment [2] was “no binding”.
